In US20250237662A1:

What was measured:
[1] = target: drug: a monoclonal antibody of human IgG4 isotype (PandA assay); test: PandA assay, mAb 0.75 ug/ml in monkey plasma
[2] = target: humanized development candidate monoclonal antibody IgG4 (hIgG4); test: Gyrolab, mAb as capture, hIgG4 40 ng/ml
[3] = target: drug: a monoclonal antibody of human IgG4 isotype (PandA assay); test: PandA assay, monkey matrix, mAb 0.5 ug/ml
[4] = target: humanized development candidate monoclonal antibody IgG4 (hIgG4); test: Gyrolab, mAb as capture, hIgG4 200 ng/ml, against the blank
[5] = target: humanized development candidate monoclonal antibody IgG4 (hIgG4); test: Gyrolab, mAb as capture, hIgG4 0.32 ng/ml
[6] = target: humanized development candidate monoclonal antibody IgG4 (hIgG4); test: direct ELISA, hIgG4 coated, B-cell culture medium
[7] = target: humanized development candidate monoclonal antibody IgG4 (hIgG4); test: Gyrolab, mAb as capture, hIgG4 200 ng/ml
[8] = target: humanized therapeutic monoclonal antibody IgG1 (hIgG1); test: ELISA, medium of transfected HEK293F; signal on hIgG1 over signal on cynoIgG
[9] = target: internal research reagent human Fab (hFab); test: SPR (Biacore T200), mAb captured by anti-rabbit mAb on CM5, antigen 80-0 nM, 1:1 fit
[10] = target: humanized development candidate monoclonal antibody IgG4 (hIgG4); test: as above
[11] = target: humanized therapeutic monoclonal antibody IgG1 (hIgG1); test: as above
[12] = target: humanized development candidate monoclonal antibody IgG4 (hIgG4); test: Gyrolab, mAb as capture, hIgG4 8 ng/ml, against the blank
[13] = target: humanized development candidate monoclonal antibody IgG4 (hIgG4); test: Gyrolab, mAb as capture, hIgG4 1000 ng/ml, against the blank
[14] = target: drug: a monoclonal antibody of human IgG4 isotype (PandA assay); test: PandA assay, mAb 0.5 ug/ml in monkey plasma
[15] = target: cynomolgus monkey IgG (cynoIgG); test: direct ELISA, cynoIgG coated (hIgG1/CynoIgG screen), B-cell culture medium
[16] = target: drug: a monoclonal antibody of human IgG4 isotype (PandA assay); test: PandA assay, monkey matrix, mAb 1 ug/ml
[17] = target: humanized therapeutic monoclonal antibody IgG1 (hIgG1); test: direct ELISA, hIgG1 coated, B-cell culture medium
[18] = target: drug: a monoclonal antibody of human IgG4 isotype (PandA assay); test: PandA assay, monkey matrix, mAb 5 ug/ml
[19] = target: humanized development candidate monoclonal antibody IgG4 (hIgG4); test: ELISA, medium of transfected HEK293F; signal on hIgG4 over signal on cynoIgG
[20] = target: cynomolgus monkey IgG (cynoIgG); test: direct ELISA, cynoIgG coated (hIgG4/CynoIgG screen), B-cell culture medium
[21] = target: humanized development candidate monoclonal antibody IgG4 (hIgG4); test: Gyrolab, mAb as capture, hIgG4 5000 ng/ml, against the blank
[22] = target: humanized development candidate monoclonal antibody IgG4 (hIgG4); test: Gyrolab, mAb as capture, hIgG4 5000 ng/ml
[23] = target: humanized development candidate monoclonal antibody IgG4 (hIgG4); test: Gyrolab, mAb as capture, hIgG4 1.6 ng/ml, against the blank
[24] = target: humanized development candidate monoclonal antibody IgG4 (hIgG4); test: Gyrolab, mAb as capture, hIgG4 40 ng/ml, against the blank
[25] = target: drug: a monoclonal antibody of human IgG4 isotype (PandA assay); test: PandA assay, monkey matrix, mAb 0.75 ug/ml
[26] = target: humanized development candidate monoclonal antibody IgG4 (hIgG4); test: Gyrolab, mAb as capture, hIgG4 8 ng/ml
[27] = target: humanized development candidate monoclonal antibody IgG4 (hIgG4); test: Gyrolab, mAb as capture, hIgG4 1000 ng/ml
[28] = target: humanized development candidate monoclonal antibody IgG4 (hIgG4); test: Gyrolab, mAb as capture, hIgG4 1.6 ng/ml
[29] = target: drug: a monoclonal antibody of human IgG4 isotype (PandA assay); test: PandA assay, mAb 1 ug/ml in monkey plasma
[30] = target: drug: a monoclonal antibody of human IgG4 isotype (PandA assay); test: PandA assay, signal to noise against the negative control
[31] = target: drug: a monoclonal antibody of human IgG4 isotype (PandA assay); test: PandA assay (PEG precipitation, acid dissociation, MSD plate, sulfo-TAG-drug), mAb 5 ug/ml in monkey plasma
[32] = target: humanized development candidate monoclonal antibody IgG4 (hIgG4); test: Gyrolab, mAb as capture, hIgG4 0.32 ng/ml, against the blank

B1: rabbit anti-human IgG monoclonal antibody clone 2C5 (antibody, V domains shown)
VH: QEQLVESGGDLVKPGASLTLTCTASGFSFSSGYYMCWVRQAPGKGLEWIACIYGGALTNTYYATWAKGRFTISKTSSTTVTLQMTSLTAADTATYFCARDLGAAGDAYNLWGPGTLVTVSS
VL: ASDMTQTPASVSAAVGGTVTIKCQASESIYSGLAWYQQKPGQPPKLLIFDASDLASGVPSRFKGSRSETEYTLTISDLECADAATYYCQCTDRNSITSYAFGGGTEVVVKG
ECL Signal [1]: 323 | Av. Resp. [2]: 23.4 | S/N (monkey) [3]: 1.93 | S/B [4]: 41.7 | Av. Resp. [5]: 2.1 | OD450 [6]: 1.29 OD450 | Av. Resp. [7]: 87.7 | ELISA signal ratio hIgG1/CynoIgG [8]: 7.72 | Kd [9]: 550 pM | koff [9]: 0.00146 s⁻¹ | kon [9]: 2.65e+06 M⁻¹ s⁻¹ | Kd [10]: 100 pM | koff [10]: 1.36e-05 s⁻¹ | kon [10]: 135000 M⁻¹ s⁻¹ | Kd [11]: 277 pM | koff [11]: 3.8e-05 s⁻¹ | kon [11]: 137000 M⁻¹ s⁻¹ | S/B [12]: 3.2 | S/B [13]: 110 | ECL Signal [14]: 188 | OD450 [15]: 0.107 OD450 | S/N (monkey) [16]: 3.39 | OD450 [17]: 1.24 OD450 | S/N (monkey) [18]: 15.7 | ELISA signal ratio hIgG4/CynoIgG [19]: 7.91 | OD450 [20]: 0.124 OD450 | S/B [21]: 151 | Av. Resp. [22]: 317 | S/B [23]: 1.4 | S/B [24]: 11.1 | S/N (monkey) [25]: 2.51 | Av. Resp. [26]: 6.6 | Av. Resp. [27]: 232 | Av. Resp. [28]: 3 | ECL Signal [29]: 426 | S/N [30]: 1.98 | ECL Signal [31]: 2180 | S/B [32]: 1
